Laboratory results published in the supplement of paper PMC9112550, “Optimization of the antimicrobial peptide Bac7 by deep mutational scanning” (BMC Biology, 2022).

Tested on: Escherichia coli TOP10
Test: shrunken log2 fold change of peptide-encoding DNA abundance (4.5 h post-induction vs induction); higher = less antimicrobial activity (less host growth inhibition)
Details: time post-induction: 4.5 h; library: site-saturation at positions 5, 18, 19, 20
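Note: peptides expressed intracellularly from a pBAD plasmid library in pooled LB shake-flask culture, induced with 0.3% L-arabinose, DNA abundance read by NGS, three biological replicates, DESeq2 with apeglm shrinkage.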

Which “shrunken log2 fold change” value does the source give for RRIRFRPPRLPRPRPRPQCHPRP here?
Its value is -0.358.

For RRIRNRPPRLPRPRPRPTWEPRP, which “shrunken log2 fold change” value is on record?
Its value is 0.102.

How did the “shrunken log2 fold change” value turn out when RRIRFRPPRLPRPRPRPDGNPRP was run?
Its value is -0.174.

Which “shrunken log2 fold change” value does the source give for RRIRSRPPRLPRPRPRPTPEPRP here?
Its value is 0.866.

RRIRLRPPRLPRPRPRPTYFPRP was tested. Which “shrunken log2 fold change” value did it give?
Its value is -0.451.

Which “shrunken log2 fold change” value does the source give for RRIRMRPPRLPRPRPRPCPVPRP here?
The value was 0.0171.

For RRIRPRPPRLPRPRPRPGMMPRP, which “shrunken log2 fold change” value is on record?
Its value is -0.111.

For RRIRSRPPRLPRPRPRPRRFPRP, which “shrunken log2 fold change” value is on record?
Its value is -0.0186.

How did the “shrunken log2 fold change” value turn out when RRIRERPPRLPRPRPRPNWNPRP was run?
The value was -0.236.

How did the “shrunken log2 fold change” value turn out when RRIRWRPPRLPRPRPRPYECPRP was run?
The value was -0.148.

RRIRDRPPRLPRPRPRPTWFPRP was tested. Which “shrunken log2 fold change” value did it give?
Its value is 0.295.

How did the “shrunken log2 fold change” value turn out when RRIRIRPPRLPRPRPRPPGYPRP was run?
The value was 0.0184.

Which “shrunken log2 fold change” value does the source give for RRIRKRPPRLPRPRPRPINQPRP here?
Its value is -0.166.

How did the “shrunken log2 fold change” value turn out when RRIRKRPPRLPRPRPRPDCRPRP was run?
Its value is -0.00777.

RRIRERPPRLPRPRPRPAWLPRP was tested. Which “shrunken log2 fold change” value did it give?
Its value is 0.471.

Which “shrunken log2 fold change” value does the source give for RRIRGRPPRLPRPRPRPQDLPRP here?
Its value is -0.00287.

For RRIRHRPPRLPRPRPRPQSMPRP, which “shrunken log2 fold change” value is on record?
Its value is -0.156.

RRIRQRPPRLPRPRPRPIANPRP was tested. Which “shrunken log2 fold change” value did it give?
Its value is -0.0128.

With RRIRRRPPRLPRPRPRPGNVPRP as the sequence, how does the “shrunken log2 fold change” value read?
Its value is 0.418.

With RRIRCRPPRLPRPRPRPDAYPRP as the sequence, how does the “shrunken log2 fold change” value read?
Its value is -0.177.

Which “shrunken log2 fold change” value does the source give for RRIRCRPPRLPRPRPRPRVFPRP here?
The value was 0.0449.

How did the “shrunken log2 fold change” value turn out when RRIRLRPPRLPRPRPRPVKYPRP was run?
The value was -0.446.

For RRIRVRPPRLPRPRPRPQDFPRP, which “shrunken log2 fold change” value is on record?
The value was 0.00129.

With RRIRKRPPRLPRPRPRPYYGPRP as the sequence, how does the “shrunken log2 fold change” value read?
Its value is -0.101.

How did the “shrunken log2 fold change” value turn out when RRIRTRPPRLPRPRPRPTQSPRP was run?
Its value is 0.311.

How did the “shrunken log2 fold change” value turn out when RRIRWRPPRLPRPRPRPGLEPRP was run?
Its value is 1.46.

For RRIRFRPPRLPRPRPRPVACPRP, which “shrunken log2 fold change” value is on record?
The value was -0.347.

Which “shrunken log2 fold change” value does the source give for RRIRNRPPRLPRPRPRPMFNPRP here?
Its value is -0.868.

With RRIRYRPPRLPRPRPRPKKVPRP as the sequence, how does the “shrunken log2 fold change” value read?
The value was -0.141.

For RRIRRRPPRLPRPRPRPTGKPRP, which “shrunken log2 fold change” value is on record?
Its value is 0.901.

With RRIRCRPPRLPRPRPRPHCKPRP as the sequence, how does the “shrunken log2 fold change” value read?
Its value is -0.348.

How did the “shrunken log2 fold change” value turn out when RRIRPRPPRLPRPRPRPRVLPRP was run?
The value was -0.0343.

How did the “shrunken log2 fold change” value turn out when RRIRDRPPRLPRPRPRPIPEPRP was run?
Its value is -0.138.

Which “shrunken log2 fold change” value does the source give for RRIRVRPPRLPRPRPRPPWMPRP here?
Its value is -0.0435.

With RRIRVRPPRLPRPRPRPHESPRP as the sequence, how does the “shrunken log2 fold change” value read?
The value was 0.22.

How did the “shrunken log2 fold change” value turn out when RRIRERPPRLPRPRPRPCHWPRP was run?
Its value is -0.0135.

How did the “shrunken log2 fold change” value turn out when RRIRHRPPRLPRPRPRPNQQPRP was run?
The value was -0.0412.

RRIRIRPPRLPRPRPRPAHYPRP was tested. Which “shrunken log2 fold change” value did it give?
Its value is -0.153.

With RRIRGRPPRLPRPRPRPFTFPRP as the sequence, how does the “shrunken log2 fold change” value read?
Its value is -0.0577.

Which “shrunken log2 fold change” value does the source give for RRIRCRPPRLPRPRPRPLWSPRP here?
Its value is -0.233.

Which “shrunken log2 fold change” value does the source give for RRIRWRPPRLPRPRPRPSMYPRP here?
Its value is -0.326.

For RRIRHRPPRLPRPRPRPVMEPRP, which “shrunken log2 fold change” value is on record?
The value was 0.105.

RRIRKRPPRLPRPRPRPIWWPRP was tested. Which “shrunken log2 fold change” value did it give?
The value was 0.0844.

With RRIRWRPPRLPRPRPRPPYPPRP as the sequence, how does the “shrunken log2 fold change” value read?
Its value is 0.0905.

RRIRMRPPRLPRPRPRPDCPPRP was tested. Which “shrunken log2 fold change” value did it give?
The value was 0.0739.

For RRIRRRPPRLPRPRPRPLYCPRP, which “shrunken log2 fold change” value is on record?
The value was -0.115.

How did the “shrunken log2 fold change” value turn out when RRIRSRPPRLPRPRPRPFQYPRP was run?
The value was -0.177.

For RRIRQRPPRLPRPRPRPECRPRP, which “shrunken log2 fold change” value is on record?
The value was 0.414.

How did the “shrunken log2 fold change” value turn out when RRIRPRPPRLPRPRPRPANYPRP was run?
The value was 0.0679.

RRIRTRPPRLPRPRPRPEIIPRP was tested. Which “shrunken log2 fold change” value did it give?
Its value is 0.095.

Which “shrunken log2 fold change” value does the source give for RRIRQRPPRLPRPRPRPNTRPRP here?
The value was -0.0754.

For RRIRDRPPRLPRPRPRPQSHPRP, which “shrunken log2 fold change” value is on record?
The value was 0.236.

RRIRHRPPRLPRPRPRPWCGPRP was tested. Which “shrunken log2 fold change” value did it give?
The value was -0.181.

With RRIRQRPPRLPRPRPRPQWVPRP as the sequence, how does the “shrunken log2 fold change” value read?
The value was 0.0126.

With RRIRDRPPRLPRPRPRPSYLPRP as the sequence, how does the “shrunken log2 fold change” value read?
The value was -0.233.

With RRIRVRPPRLPRPRPRPSWGPRP as the sequence, how does the “shrunken log2 fold change” value read?
Its value is 0.0232.

With RRIRNRPPRLPRPRPRPFKRPRP as the sequence, how does the “shrunken log2 fold change” value read?
Its value is 0.09.

With RRIRGRPPRLPRPRPRPECTPRP as the sequence, how does the “shrunken log2 fold change” value read?
Its value is 2.08.

How did the “shrunken log2 fold change” value turn out when RRIRKRPPRLPRPRPRPAYKPRP was run?
The value was 0.354.

How did the “shrunken log2 fold change” value turn out when RRIRQRPPRLPRPRPRPFAKPRP was run?
Its value is -0.0663.

Which “shrunken log2 fold change” value does the source give for RRIRWRPPRLPRPRPRPTKVPRP here?
Its value is -0.0596.

How did the “shrunken log2 fold change” value turn out when RRIRQRPPRLPRPRPRPWPDPRP was run?
Its value is -0.0854.

For RRIRRRPPRLPRPRPRPQKVPRP, which “shrunken log2 fold change” value is on record?
The value was 0.234.

With RRIRERPPRLPRPRPRPPRTPRP as the sequence, how does the “shrunken log2 fold change” value read?
Its value is 0.316.

With RRIRTRPPRLPRPRPRPFQMPRP as the sequence, how does the “shrunken log2 fold change” value read?
The value was -0.135.

RRIRIRPPRLPRPRPRPRLGPRP was tested. Which “shrunken log2 fold change” value did it give?
Its value is 0.0473.

How did the “shrunken log2 fold change” value turn out when RRIRPRPPRLPRPRPRPQGYPRP was run?
The value was -0.0854.

With RRIRSRPPRLPRPRPRPGREPRP as the sequence, how does the “shrunken log2 fold change” value read?
Its value is 0.325.

How did the “shrunken log2 fold change” value turn out when RRIRERPPRLPRPRPRPNMCPRP was run?
Its value is -0.369.

With RRIRRRPPRLPRPRPRPEMGPRP as the sequence, how does the “shrunken log2 fold change” value read?
Its value is 0.626.

RRIRVRPPRLPRPRPRPGGWPRP was tested. Which “shrunken log2 fold change” value did it give?
Its value is 0.72.

For RRIRQRPPRLPRPRPRPLSNPRP, which “shrunken log2 fold change” value is on record?
The value was -0.109.

For RRIRYRPPRLPRPRPRPLTRPRP, which “shrunken log2 fold change” value is on record?
Its value is -0.0623.

With RRIRRRPPRLPRPRPRPNPRPRP as the sequence, how does the “shrunken log2 fold change” value read?
The value was 1.11.

How did the “shrunken log2 fold change” value turn out when RRIRIRPPRLPRPRPRPPGFPRP was run?
Its value is 0.195.

RRIRHRPPRLPRPRPRPWYEPRP was tested. Which “shrunken log2 fold change” value did it give?
The value was -1.06.

How did the “shrunken log2 fold change” value turn out when RRIRPRPPRLPRPRPRPSWIPRP was run?
Its value is -0.179.

RRIRRRPPRLPRPRPRPRCHPRP was tested. Which “shrunken log2 fold change” value did it give?
The value was 0.127.

Which “shrunken log2 fold change” value does the source give for RRIRERPPRLPRPRPRPPASPRP here?
Its value is 0.127.

With RRIRCRPPRLPRPRPRPRRYPRP as the sequence, how does the “shrunken log2 fold change” value read?
Its value is -0.0183.

RRIRERPPRLPRPRPRPHLQPRP was tested. Which “shrunken log2 fold change” value did it give?
Its value is -0.206.

For RRIRERPPRLPRPRPRPSRYPRP, which “shrunken log2 fold change” value is on record?
The value was -0.481.

Which “shrunken log2 fold change” value does the source give for RRIRCRPPRLPRPRPRPPPMPRP here?
The value was 1.08.

How did the “shrunken log2 fold change” value turn out when RRIRMRPPRLPRPRPRPGTYPRP was run?
Its value is -0.163.

Which “shrunken log2 fold change” value does the source give for RRIRDRPPRLPRPRPRPQQFPRP here?
The value was 0.251.

With RRIRPRPPRLPRPRPRPEHDPRP as the sequence, how does the “shrunken log2 fold change” value read?
Its value is -0.00589.

RRIRHRPPRLPRPRPRPKDPPRP was tested. Which “shrunken log2 fold change” value did it give?
The value was 0.0476.

For RRIRSRPPRLPRPRPRPIWKPRP, which “shrunken log2 fold change” value is on record?
The value was 0.346.

For RRIRLRPPRLPRPRPRPEEFPRP, which “shrunken log2 fold change” value is on record?
The value was -0.0121.

For RRIRGRPPRLPRPRPRPPNNPRP, which “shrunken log2 fold change” value is on record?
The value was 0.835.

How did the “shrunken log2 fold change” value turn out when RRIRFRPPRLPRPRPRPREKPRP was run?
Its value is -0.0136.
